# Data taken from PMC8962251 (Biomedicines, 2022).
# Where no end group is shown, it is not given here.
# Experiments:
# [1] = biological target: T1, SARS-CoV-2 S1S2-His (monomeric S1S2 spike protein) (SARS-CoV-2, UniProt P0DTC2 14-1213); test: SPR; settings: both partners purified
# T1 construct: source: High Five insect cells, purified (HisExcel, SEC)
# [2] = biological target: T2, SARS-CoV-2 RBD (High Five insect cells, 6x His-tag) (SARS-CoV-2, UniProt P0DTC2); test: SPR; settings: both partners purified
# T2 construct: source: High Five insect cells, purified (HisExcel, SEC)
binder,measurement,setting,value
HDFWWEYDKKNDTWTRRRR-NH2 (also called CVRDBL-3; CVRBD-3; source: synthetic peptide; bought: CASLO) [CVRBDL-3],stoichiometry N,[1],1
same,stoichiometry N,[2],1
